Values belong to the substance of their own block, whether it stands above or below them.
Columns and labels:
[1] = target: inactive human 80S ribosome (human (endogenous in MCF7)) (UniProt P18124); assay: cryo-EM structure
[2] = target: large 60S ribosomal subunit (human (endogenous in MCF7)) (UniProt P30050); assay: cryo-EM structure
[3] = target: large 60S ribosomal subunit (human (endogenous in MCF7)) (UniProt P30050); assay: co-sedimentation

Substance: IFRD2 (from UniProt Q12894 1-442) (natural protein)
- percent of 80S ribosomes with IFRD2 (arsenite-treated cells) [1]: 13%
- percent of 80S ribosomes with IFRD2 (untreated cells) [1]: 16.9%

- percent of 60S subunits with eIF6 (untreated cells) [2]: 30%
- stoichiometry N (eIF6 : large subunit proteins) [3]: 1
Substance: eIF6 (from UniProt P56537 1-245) (natural protein)

Substance: LYAR (from UniProt Q9NX58 1-379) (natural protein)
- percent of 80S ribosomes with LYAR (arsenite-treated cells) [1]: 15.5%
- percent of 80S ribosomes with LYAR (untreated cells) [1]: 13.2%

From article doi:10.1101/2022.05.13.491786
